Tests used:
[1] = system: scFv clone C1 (anti-dsDNA d(AT)4 recombinant antibody) (synthetic (Tomlinson I/J human scFv phage library)); test: ELONA; conditions: ELISA
[2] = system: scFv clone C1 (anti-dsDNA d(AT)4 recombinant antibody) (synthetic (Tomlinson I/J human scFv phage library)); test: competition; conditions: competition ELISA against immobilized 35 bp dsDNA, 50% reduction, 1.25x10^7 M-1; discussion gives about 50-80 nM

| Sequence | IC50 ([1]; varying immobilized dsDNA at fixed scFv (3 uM)) | IC50 ([1]; varying scFv with 25 pmol immobilized dsDNA, single site isotherm, 5xSSCT immobilization, RT) | Kd [2] |
| --- | --- | --- | --- |
| AAAAGACTCACTGTTTGTCTGTCGTTCTAGGATATATAT / ATATATATCCTAGAACGACAGACAAACAGTGAGTC [35 bp dsDNA epitope (ssDNA:ssDNA')] | 31 nM | 238 nM | – |
| ATATATATCCTAGAACGACAGACAAACAGTGAGTCCGCATTGTTACAT (double strand) [Icomp (Icomp:Icomp')] | – | – | 80 nM |
